Experimental data reported in US20100138941A1 (IMAGENE, published 2010).

Biological target: T1, AIMP1 protein (SEQ ID NO: 1) consisting of 312 amino acids (Homo sapiens (Human), UniProt Q12904 1-312)
T1 construct: also called purified AIMP1 protein; AIMP1 protein antigen
T1 sequence: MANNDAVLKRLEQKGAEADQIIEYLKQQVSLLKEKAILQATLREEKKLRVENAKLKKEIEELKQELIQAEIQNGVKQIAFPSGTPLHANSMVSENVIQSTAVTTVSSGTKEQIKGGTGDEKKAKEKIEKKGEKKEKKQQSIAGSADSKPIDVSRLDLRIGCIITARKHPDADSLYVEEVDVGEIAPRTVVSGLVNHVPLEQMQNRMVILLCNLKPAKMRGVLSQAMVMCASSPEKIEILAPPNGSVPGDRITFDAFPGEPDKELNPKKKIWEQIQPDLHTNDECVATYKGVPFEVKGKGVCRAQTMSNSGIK
Assay: purified GST-gp96 fragments incubated with AIMP1, Western blot with anti-AIMP1 antibody
Protocol: The purified GST-gp96 fragments were cultured with AIMP1 and analyzed by Western blot using an anti-AIMP1 antibody, and the analysis results are shown in FIG. 16.

binding result: binds
B1: GST-gp96-(699-799) (other)
chain: RRIKEDEDDKTVLDLAVVLFETATLRSGYLLPDTKAYGDRIERMLRLSLNIDPDAKVEEEPEEEPEETAEDTTEDTEQDEDEEMDVGTDEEEETAKESTAE
notes: GST-tag fusion purified on GSH agarose; also called domain involved in oligomerization; not shown: GST tag encoded by the pGEX4T3 vector (Amersham Biosciences)
